Data taken from patent publication US20190077860A1 (EISAI R AND D MANAGEMENT, published 2019).

Tests used:
[1] = molecular target: T1, mouse EphA4 extracellular region-SEAP-His protein (mouse); test: SPR (Biacore T200), mouse EphA4 extracellular region-SEAP-His captured on an anti-His antibody CM5 chip, antibody as analyte at 0.6-50 nM, 1:1 fit (run alongside F(ab')2)
Protocol: (§1) Next, the binding affinity of antibody A-Fab and antibody A-F(ab′)₂ for mouse and human EphA4 was determined by surface plasmon resonance (SPR) using Biacore T200 (GE Healthcare). Antibody A obtained in Example 1 was used as a control for the comparison of each fragment. First, an anti-His tag antibody was immobilized on sensor chip CM5. The immobilization of the anti-His tag antibody on sensor chip CM5 was performed by the amine coupling method using N-hydroxysuccinimide (NHS) and N-ethyl-N′-(3-dimethylaminopropyl)carbodiimide hydrochloride (EDC). Ethanolamine was used in blocking (the sensor chip and the reagents for immobilization were all manufactured by GE Healthcare). The antibody was diluted with a buffer solution for immobilization (10 mM sodium acetate, pH 4.5) into 3 μg/mL and immobilized on the sensor chip according to the protocol attached to Biacore T200.
(§2) Mouse or human EphA4 extracellular region-SEAP-His protein was diluted with a running buffer solution HBS-EP (GE Healthcare, BR-1001-88), injected onto a flow cell for 120 seconds, and captured (amount of the protein captured: approximately 10 to 20 RU). Subsequently, antibody A (50, 16.7, 5.6, 1.9, 0.6, and 0 nM), antibody A-Fab (500, 166.7, 55.6, 18.5, 6.2, and 0 nM), or antibody A-F(ab′)₂ (50, 16.7, 5.6, 1.9, 0.6, and 0 nM) serially diluted using HBS-EP was added to the sensor chip for 120 seconds. Binding reaction curves were sequentially observed at the time of the addition (association phase, for 120 sec) and after the completion of the addition (dissociation phase, for 900 sec). After the completion of each observation, the sensor chip was regenerated by the addition of 3 M MgCl₂ (Wako Pure Chemical Industries) (for 30 sec). The obtained binding reaction curves were subjected to fitting analysis with 1:1 binding models using software BIA evaluation attached to the system to calculate the binding affinity (KD=kd/ka) for mouse and human EphA4.

[2] = molecular target: T1, mouse EphA4 extracellular …; test: SPR (Biacore A100), antibody A captured on a rat anti-mouse IgG1 CM5 chip, mouse EphA4 extracellular region-SEAP-His as analyte at 0.8-50 nM, 1:1 fit
Protocol: The binding affinity of antibody A obtained in Example 1 for mouse and human EphA4 was determined by surface plasmon resonance (SPR) using Biacore A100 (GE Healthcare). First, a rat anti-mouse IgG₁ antibody produced with a conventional procedure by immunizing rat with a mouse IgG₁ antibody was immobilized on sensor chip CM5. The immobilization of the rat anti-mouse IgG1 antibody on sensor chip CM5 was performed by the amine coupling method using N-hydroxysuccinimide (NHS) and N-ethyl-N′-(3-dimethylaminopropyl)carbodiimide hydrochloride (EDC). Ethanolamine was used in blocking (the sensor chip and the reagents for immobilization were all manufactured by GE Healthcare). The antibody was diluted with a buffer solution for immobilization (10 mM sodium acetate, pH 4.5) into 1 to 2 μg/mL and immobilized on the sensor chip according to the protocol attached to Biacore A100. Antibody A was diluted with a running buffer solution HBS-EP (GE Healthcare, BR-1001-88), injected onto a flow cell for 120 seconds, and captured (amount of the antibody captured: approximately 70 to 100 RU). Subsequently, mouse or human EphA4 extracellular region-SEAP-His serially diluted in the range of 50, 25, 12.5, 6.3, 3.1, 1.6, 0.8, and 0 nM using HBS-EP was added to the sensor chip for 120 seconds. […]

[3] = molecular target: T1, mouse EphA4 extracellular …; test: competition ELISA, competitor mouse Ephrin A1-Fc
Protocol: (§3) Antibody A obtained in Example 1 was evaluated for its inhibitory activity against the binding between mouse EphA4 and its mouse ligand according to the following steps. Each well of a 96-well plate (Nunc) was coated with an anti-alkaline phosphatase antibody (Thermo Fisher Scientific). After incubation overnight at 4° C., each well was blocked with 1% BlockAce (DS Pharma Biomedical) at room temperature for 1 hour. After washing with 0.05% Tween 20/PBS (Thermo Fisher Scientific) three times, the mouse EphA4 extracellular region-SEAP-His protein obtained by the method of Example 1 was added (final concentration: 10 nM) to each well and incubated at room temperature for 1 hour. After washing three times, ligands and serially diluted antibody A (0, 0.001, 0.003, 0.01, 0.03, 0.1, 0.3, 1,3, 10, 30, 100, 300, and 1000 nM) or a known EphA4 inhibitor KYL peptide ([…], 0, 0.003, 0.01, 0.03, 0.1, 0.3, 1, 3, 10, 30, and 100 μM, its synthesis was outsourced to Hokkaido System Science) or compound 1 (0, 0.03, 0.1, 0.3, 1,3, 10, 30, 100, 300, and 1000 μM, Formula 1, Matrix Scientific) were added to each well. The ligands used were mouse Ephrin A1-Fc chimera (R&D Systems, final concentration: 20 nM) and mouse Ephrin B2-Fc chimera (R&D Systems, final concentration: 0.6 nM). […] The absorbance at 450 nm was read using a microplate reader (Molecular Devices).

[4] = molecular target: T1, mouse EphA4 extracellular …; test: competition ELISA, mouse ligands
Protocol: as §3

[5] = molecular target: T2, human EphA4 extracellular region-SEAP-His protein (human, UniProt P54764 20-547); test: SPR (Biacore T200), human EphA4 extracellular region-SEAP-His captured on an anti-His antibody CM5 chip, antibody as analyte at 0.6-50 nM, 1:1 fit
T2 construct: also called hEphA4-SEAP-His
Protocol: as §1, §2

T2 sequence (P54764 20-547): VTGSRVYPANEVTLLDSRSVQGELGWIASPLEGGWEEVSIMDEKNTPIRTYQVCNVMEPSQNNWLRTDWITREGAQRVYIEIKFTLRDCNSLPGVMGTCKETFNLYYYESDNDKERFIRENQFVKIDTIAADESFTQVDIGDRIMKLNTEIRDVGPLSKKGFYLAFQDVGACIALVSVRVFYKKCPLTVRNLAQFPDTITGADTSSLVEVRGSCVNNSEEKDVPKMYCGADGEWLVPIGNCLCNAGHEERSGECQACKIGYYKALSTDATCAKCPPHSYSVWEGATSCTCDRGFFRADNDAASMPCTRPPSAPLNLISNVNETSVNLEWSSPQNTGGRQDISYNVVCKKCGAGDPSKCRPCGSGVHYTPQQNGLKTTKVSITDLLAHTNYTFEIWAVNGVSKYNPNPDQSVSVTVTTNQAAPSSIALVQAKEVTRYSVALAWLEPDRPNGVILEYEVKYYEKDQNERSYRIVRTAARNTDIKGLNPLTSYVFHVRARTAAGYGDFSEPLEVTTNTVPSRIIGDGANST
T1 sequence (chain, as listed by the source limits assumed): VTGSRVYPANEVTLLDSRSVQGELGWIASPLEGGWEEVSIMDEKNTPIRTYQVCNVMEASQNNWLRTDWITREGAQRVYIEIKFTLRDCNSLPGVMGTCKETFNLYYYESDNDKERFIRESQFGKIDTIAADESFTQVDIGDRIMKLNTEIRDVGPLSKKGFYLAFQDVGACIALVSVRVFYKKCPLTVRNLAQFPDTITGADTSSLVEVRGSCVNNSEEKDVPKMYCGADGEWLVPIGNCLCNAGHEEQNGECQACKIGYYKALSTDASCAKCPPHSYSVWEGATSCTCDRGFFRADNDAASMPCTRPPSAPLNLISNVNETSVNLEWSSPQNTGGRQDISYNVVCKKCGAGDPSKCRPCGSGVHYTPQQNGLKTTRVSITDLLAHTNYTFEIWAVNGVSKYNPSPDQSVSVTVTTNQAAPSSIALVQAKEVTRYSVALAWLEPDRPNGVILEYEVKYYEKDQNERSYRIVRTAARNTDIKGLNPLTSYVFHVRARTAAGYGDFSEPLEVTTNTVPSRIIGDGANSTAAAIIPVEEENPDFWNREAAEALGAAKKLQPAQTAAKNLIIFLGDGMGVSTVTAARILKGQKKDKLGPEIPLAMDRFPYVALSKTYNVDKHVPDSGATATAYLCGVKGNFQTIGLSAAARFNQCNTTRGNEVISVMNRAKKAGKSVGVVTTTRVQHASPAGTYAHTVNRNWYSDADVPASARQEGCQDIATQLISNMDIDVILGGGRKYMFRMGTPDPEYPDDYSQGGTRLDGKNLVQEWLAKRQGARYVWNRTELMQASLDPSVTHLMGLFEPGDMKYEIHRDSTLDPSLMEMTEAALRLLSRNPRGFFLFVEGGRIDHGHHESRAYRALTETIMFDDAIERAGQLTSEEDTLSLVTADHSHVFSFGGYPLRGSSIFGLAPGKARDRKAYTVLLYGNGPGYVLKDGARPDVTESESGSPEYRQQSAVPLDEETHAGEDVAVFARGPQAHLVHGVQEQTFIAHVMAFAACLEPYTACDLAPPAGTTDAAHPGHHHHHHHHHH

Kd [1]: 0.0423 nM | koff [1]: 0.000288 s⁻¹ | kon [1]: 6.81e+06 M⁻¹ s⁻¹ | koff [2]: 0.000144 s⁻¹ | kon [2]: 218000 M⁻¹ s⁻¹ | IC50 [3]: ~1.2 nM | fold activity against KYL peptide [4]: ≥ 1000 fold | Kd [5]: 0.144 nM | koff [5]: 0.000389 s⁻¹ | kon [5]: 2.7e+06 M⁻¹ s⁻¹
B1: antibody A (antibody, mouse IgG1, kappa, V domains shown)
VH: QIQLVQSGPELKKPGETVKISCKASGYTFTDYSMHWVKQAPGKGLKWMGWINTETGEPTYADDFKGRFAFSLETSASTAYLQINNLKNEDTATYFCARIPLYYYGSRYWYFDVWGAGTTVTVSS
VL: DIQMTQSPASLSVSVGETVTITCRASENIYRNLAWYQQKQGKSPQLLVYAATNLADGVPSRFSGSGSGTQYSLKINSLQSEDFGSYYCQHFWGTPWTFGGGTKLEIKR
notes: mouse IgG1 heavy chain, kappa light chain; purified from hybridoma supernatant; also called anti-EphA4 monoclonal antibody; antibody A-IgG
